In test [1] the target is T1, GFAP-His重组蛋白 (Homo sapiens (Human), UniProt P14136 1-432).
T1 construct: Recombinant GFAP expressed in 293F cells; also called GFAP-His蛋白; Glial fibrillary acidic protein
The test can be described thus: chemiluminescence sandwich assay on GFAP-His (Rabbit anti-GFAP mAb on magnetic beads, test antibody labelled with acridinium ester).

Test [2] addresses T1, GFAP-His重组蛋白. Put plainly: fixed capture antibody in the sandwich ELISA that detects GFAP-His.

T1 sequence (P14136 other isoform, or with tags, fused parts or gaps limits assumed): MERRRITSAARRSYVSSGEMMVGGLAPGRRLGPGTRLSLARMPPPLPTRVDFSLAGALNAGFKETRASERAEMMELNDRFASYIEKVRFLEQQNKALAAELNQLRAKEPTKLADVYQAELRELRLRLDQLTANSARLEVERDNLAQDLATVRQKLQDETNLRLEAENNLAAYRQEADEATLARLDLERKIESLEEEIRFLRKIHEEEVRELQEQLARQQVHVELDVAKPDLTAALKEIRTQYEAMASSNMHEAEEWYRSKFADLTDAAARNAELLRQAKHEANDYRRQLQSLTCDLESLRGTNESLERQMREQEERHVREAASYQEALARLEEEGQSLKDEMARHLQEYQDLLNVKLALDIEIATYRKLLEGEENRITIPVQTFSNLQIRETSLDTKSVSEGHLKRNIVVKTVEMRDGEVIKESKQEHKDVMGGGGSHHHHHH

B1: Anti-GFAP-rRmab-1 (antibody, V domains shown)
VH: QSLEESGGRLVTPGTPLTLTCTSSGFSLSSYYIQWVRQAPGKGLEWIGIIYASGSTYYASWAKGRFTISKTSATVDLKITSPTQEDTATYFCARNDYDSNLIMSIWGPGTLVTVSS
VL: AYDMTQTPASMEVAVGGTVTINCQASQNIGSSLAWYQQKPGQRPKLLIYRASTLASGVPSRFSGSGSGTEFTLTISGLQCDDAATYYCQQHFSIGAVQNVFGGGTEVVVR
notes: the rabbit constant regions are not; It was labelled with acridinium ester in the chemiluminescence sandwich assay; also called GFAP特异性抗体; 优选抗体
Consider B1, for which the binding result in test [1] is “binds”.

B2: Rabbit anti-GFAP mAb (antibody, V domains shown)
VH: QSLEESGGRLVTPGGSLTLTCTVSGIDLTTYTMTWVRQAPGKGLEWIGIISGSGTTYYASWAKGRFTISKTSTTVDLKITSPTTEDTATYFCARDLYGSSDIYNIWGPGTLVTVST
VL: DIVMTQTPASVSAAVGGTVTINCQASESIRNYLSWYQQKPGQPPKLLIFDASTLASGVSSRFKGSGSGTEFTLTISDLECADAATYYCQTYYGVSGFGNAFGGGTEVVVK
notes: Rabbit monoclonal antibody developed earlier, used as the fixed capture antibody (coated on the plate or on magnetic beads) in the sandwich assays; also called 包被抗体; 与之配对的抗体
Turning to B2, in test [2], the binding result is listed as “binds”.

The values are drawn from CN117820471A (VAZYME MEDICAL CO LTD; HUNAN NOVAZYME MEDICAL TECH CO LTD, dated 2024).
